From patent US20220025023A1 (AC IMMUNE, published 2022)
Where no end group is shown, it is not given here.

T1: TDP-3 peptide (human)
T1 construct: Irrelevant control peptide; conjugated to Luminex beads in the assay; also called TDP-43 aa 310-370; irrelevant target
T1 peptide: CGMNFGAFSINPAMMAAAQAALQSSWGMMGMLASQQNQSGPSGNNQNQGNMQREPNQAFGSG

T2: TP-24 peptide (human, also: biotinylated, site not given here)
T2 construct: 15-mer of human TDP-43 from the library spanning aa 199-285; captured on streptavidin plates
T2 peptide: REFFSQYGDVMDVFI

T3: TP-25 peptide (human, also: biotinylated, site not given here)
T3 construct: 15-mer of human TDP-43 from the library spanning aa 199-285; captured on streptavidin plates
T3 peptide: VMDVFIPKPFRAFAF

T4: TDP-215 peptide (human)
T4 construct: same ELISA method as for the biotinylated 15-mers
T4 peptide: GDVMDVFI

T5: TDP-210 peptide (human)
T5 construct: 8-mer of human TDP-43; same ELISA method as for the biotinylated 15-mers
T5 peptide: FFSQYGDV

T6: TDP-223 peptide (human)
T6 construct: 8-mer of human TDP-43; same ELISA method as for the biotinylated 15-mers
T6 peptide: PKPFRAFA

T7: TDP-222 peptide (human)
T7 construct: 8-mer of human TDP-43; same ELISA method as for the biotinylated 15-mers
T7 peptide: IPKPFRAF

T8: TDP-218 peptide (human)
T8 construct: 8-mer of human TDP-43; same ELISA method as for the biotinylated 15-mers
T8 peptide: MDVFIPKP

T9: TDP-212 peptide (human)
T9 construct: 8-mer of human TDP-43; same ELISA method as for the biotinylated 15-mers
T9 peptide: SQYGDVMD

T10: TDP-213 peptide (human)
T10 construct: 8-mer of human TDP-43; same ELISA method as for the biotinylated 15-mers
T10 peptide: QYGDVMDV

T11: TDP-211 peptide (human)
T11 construct: 8-mer of human TDP-43; same ELISA method as for the biotinylated 15-mers
T11 peptide: FSQYGDVM

T12: TDP-217 peptide (human)
T12 construct: 8-mer of human TDP-43; same ELISA method as for the biotinylated 15-mers
T12 peptide: VMDVFIPK

T13: TDP-220 peptide (human)
T13 construct: 8-mer of human TDP-43; same ELISA method as for the biotinylated 15-mers
T13 peptide: VFIPKPFR

T14: TDP-216 peptide (human)
T14 construct: 8-mer of human TDP-43; same ELISA method as for the biotinylated 15-mers
T14 peptide: DVMDVFIP

T15: TDP-214 peptide (human)
T15 construct: 8-mer of human TDP-43; same ELISA method as for the biotinylated 15-mers
T15 peptide: YGDVMDVF

T16: TDP-221 peptide (human)
T16 construct: 8-mer of human TDP-43; same ELISA method as for the biotinylated 15-mers
T16 peptide: FIPKPFRA

T17: TDP-219 peptide (human)
T17 construct: 8-mer of human TDP-43; same ELISA method as for the biotinylated 15-mers
T17 peptide: DVFIPKPF

T18: TDP-224 peptide (human)
T18 construct: 8-mer of human TDP-43; same ELISA method as for the biotinylated 15-mers
T18 peptide: KPFRAFAF

T19: TDP-1 peptide (human)
T19 construct: Immunogen peptide; conjugated to Luminex beads in the assay; also called TDP-43 aa 212-272
T19 peptide: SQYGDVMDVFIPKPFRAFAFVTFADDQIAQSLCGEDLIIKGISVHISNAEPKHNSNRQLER

T20: TP-28 (also: biotinylated, site not given here)
T20 construct: also called TP-28 peptide
T20 peptide: CGEDLIIKGISVHIS

T21: TP-27 (also: biotinylated, site not given here)
T21 construct: also called TP-27 peptide
T21 peptide: ADDQIAQSLCGEDLI

T22: TP-30 (also: biotinylated, site not given here)
T22 construct: also called TP-30 peptide
T22 peptide: PKHNSNRQLERSGRF

T23: TP-26 (also: biotinylated, site not given here)
T23 construct: also called TP-26 peptide
T23 peptide: FRAFAFVTFADDQIA

T24: TP-29 (also: biotinylated, site not given here)
T24 construct: also called TP-29 peptide
T24 peptide: ISVHISNAEPKHNSN

T25: TP-31 (also: biotinylated, site not given here)
T25 construct: also called TP-31 peptide
T25 peptide: ERSGRFGGNPGGFGN


Experiments:
TDP-3 peptide = target: T1, TDP-3 peptide; assay: Luminex bead assay, TDP-3 peptide beads (irrelevant target)
TP-24 peptide = target: T2, TP-24 peptide; assay: indirect ELISA, biotinylated 15-mer peptide on streptavidin plate, hybridoma supernatant
Description: (§1) Serum-free supernatants were harvested from stable hybridomas. The supernatants containing antibodies of interest were then screened by an indirect ELISA assay to determine epitopes. Epitopes were mapped using a library of TDP-43 15-mer peptides. Briefly, 96-well streptavidin-coated 96-well ELISA plates were incubated with 5 μg/mL of biotinylated 15-mer peptides spanning the amino acids (aa) 199-285 of human TDP-43 with 9 aa offset and 6 aa overlap. Plates were washed thoroughly with 0.05% Tween-20/PBS and then blocked with 1% bovine serum albumin (BSA) in 0.05% Tween-20/PBS for 1 hour at 37° C. The antibody contained in the hybridoma supernatant was then added at the indicated dilutions, and incubated for 2 hours at 37° C. after which the plates were washed as described previously. An AP-conjugated anti-mouse IgG secondary antibody (Jackson ImmunoResearch Laboratories, United Kingdom) was added at 1/1000 dilution in 0.05% Tween-20/PBS for 1 hour at 37° C. After the final wash, plates were incubated with pNPP (Sigma-Aldrich, Switzerland) an AP substrate solution, and read at 405 nm using an ELISA plate reader (Tecan).

TP-25 peptide = target: T3, TP-25 peptide; assay: as above
Description: as §1

TDP-215 peptide = target: T4, TDP-215 peptide; assay: indirect ELISA, 8-mer peptide library, OD 405 nm
Description: as §1
(§2) Furthermore, antibodies were tested using an indirect ELISA on a peptide library of 8-mer peptides with 7 aa overlap covering the sequence of human TDP-43 from aa 210 to aa 231, using the same ELISA method as describe previously in this section.

BSA = target: T26, BSA (bovine, UniProt P02769); assay: indirect ELISA, control coat in the 15-mer series, hybridoma supernatant
T26 construct: not specified; also called bovine serum albumin
T26 sequence (P02769 25-607 limits assumed): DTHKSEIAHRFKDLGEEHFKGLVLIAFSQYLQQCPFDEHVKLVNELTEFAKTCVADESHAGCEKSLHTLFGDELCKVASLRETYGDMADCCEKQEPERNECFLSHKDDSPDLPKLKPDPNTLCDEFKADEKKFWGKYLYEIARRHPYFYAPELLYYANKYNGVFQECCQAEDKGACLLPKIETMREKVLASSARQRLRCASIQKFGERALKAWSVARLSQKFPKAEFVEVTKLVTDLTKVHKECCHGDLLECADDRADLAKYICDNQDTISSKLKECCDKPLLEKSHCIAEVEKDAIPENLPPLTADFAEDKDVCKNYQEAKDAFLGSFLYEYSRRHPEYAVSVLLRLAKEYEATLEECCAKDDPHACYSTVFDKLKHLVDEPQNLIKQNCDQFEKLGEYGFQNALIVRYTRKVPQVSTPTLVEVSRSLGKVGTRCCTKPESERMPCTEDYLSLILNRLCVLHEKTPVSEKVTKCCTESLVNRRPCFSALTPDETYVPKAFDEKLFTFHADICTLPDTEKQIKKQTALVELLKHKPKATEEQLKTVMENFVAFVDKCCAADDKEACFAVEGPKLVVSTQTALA

TDP-210 peptide = target: T5, TDP-210 peptide; assay: indirect ELISA, 8-mer peptide library
Description: as §1, §2

TDP-223 peptide = target: T6, TDP-223 peptide; assay: indirect ELISA, 8-mer peptide library
Description: as §1, §2

TDP-222 peptide = target: T7, TDP-222 peptide; assay: indirect ELISA, 8-mer peptide library
Description: as §1, §2

TDP-218 peptide = target: T8, TDP-218 peptide; assay: indirect ELISA, 8-mer peptide library
Description: as §1, §2

TDP-212 peptide = target: T9, TDP-212 peptide; assay: indirect ELISA, 8-mer peptide library
Description: as §1, §2

TDP-213 peptide = target: T10, TDP-213 peptide; assay: indirect ELISA, 8-mer peptide library
Description: as §1, §2

TDP-211 peptide = target: T11, TDP-211 peptide; assay: indirect ELISA, 8-mer peptide library
Description: as §1, §2

TDP-217 peptide = target: T12, TDP-217 peptide; assay: indirect ELISA, 8-mer peptide library
Description: as §1, §2

TDP-220 peptide = target: T13, TDP-220 peptide; assay: indirect ELISA, 8-mer peptide library
Description: as §1, §2

TDP-216 peptide = target: T14, TDP-216 peptide; assay: indirect ELISA, 8-mer peptide library
Description: as §1, §2

TDP-214 peptide = target: T15, TDP-214 peptide; assay: indirect ELISA, 8-mer peptide library
Description: as §1, §2

TDP-221 peptide = target: T16, TDP-221 peptide; assay: indirect ELISA, 8-mer peptide library
Description: as §1, §2

TDP-219 peptide = target: T17, TDP-219 peptide; assay: indirect ELISA, 8-mer peptide library
Description: as §1, §2

TDP-224 peptide = target: T18, TDP-224 peptide; assay: indirect ELISA, 8-mer peptide library
Description: as §1, §2

TDP-1 peptide = target: T19, TDP-1 peptide; assay: Luminex bead assay, antibody serial dilution, TDP-1 peptide beads
TP-28 = target: T20, TP-28; assay: indirect ELISA, biotinylated 15-mer on streptavidin plate, hybridoma supernatant
Description: as §1

TP-27 = target: T21, TP-27; assay: as above
Description: as §1

TP-30 = target: T22, TP-30; assay: as above
Description: as §1

TP-26 = target: T23, TP-26; assay: as above
Description: as §1

TP-29 = target: T24, TP-29; assay: as above
Description: as §1

TP-31 = target: T25, TP-31; assay: as above
Description: as §1

Row | Binder | binding result (TDP-3 peptide) | OD (TP-24 peptide) | OD (TP-25 peptide) | binding result (TDP-215 peptide) | binding result (BSA) | binding result (TDP-210 peptide) | binding result (TDP-223 peptide) | binding result (TDP-222 peptide) | binding result (TDP-218 peptide) | binding result (TDP-212 peptide) | binding result (TDP-213 peptide) | binding result (TDP-211 peptide) | binding result (TDP-217 peptide) | binding result (TDP-220 peptide) | binding result (TDP-216 peptide) | binding result (TDP-214 peptide) | binding result (TDP-221 peptide) | binding result (TDP-219 peptide) | binding result (TDP-224 peptide) | EC50 (TDP-1 peptide) | other results
1 | ACI-7062-415C4-Ab1 (antibody, IgG1, V domains shown, also called 415C4C6; clone 14) VH: QVTLKESGPGILQPSQTLSLTCSFSGFSLSTYGIGVGWIRQPSGKGLEWLAHIWWNDNKYYKTALKSRLTISKDTSNNQVFLKIASVDTADSATYYCARVYGNLYYFGYWGQGTTLTVSS VL: DVLMTQTPLSLPVSLGDQASISCRSSQSIVHSTGNTYLEWYLQKPGQSPKLLIYKVSNRFSGVPDRFSGSGSGTDFTLKISRVEAEDLGVYYCFQGSRVPTFGAGTKLELKR | no binding | 3.8 O.D. (405 nm) | 1.2 O.D. (405 nm) | binds | no binding | no binding | no binding | no binding | no binding | no binding | no binding | no binding | no binding | no binding | no binding | no binding | no binding | no binding | no binding | < 0.01 nM | binding result (TP-28): no binding; binding result (TP-27): no binding; binding result (TP-30): no binding; binding result (TP-26): no binding; binding result (TP-29): no binding; binding result (TP-31): no binding
2 | ACI-7062-412E12-Ab1 (antibody, IgG1, V domains shown, also called 412E12A2; clone 10) VH: DVQLVESGGGLVQPGGSRRLSCAASGFTFSRFGMHWVRQAPEKGLEWVAYIRSGSDIIYYADSVKGRFTISRDNPENTLFLQMTSLRSEDTAMYYCARSGTTVPFDYWGQGTSLTVSS VL: DIVMTQSPSSLAMSVGQKVTMSCKSSQSLLNSGDQKNYLAWYQQKPGQSPELLLYFASTRASGVPDRFIGSGSGTDFSLTISSVQAEDLADYFCQQHYSIPLTFGAGTKLELKR | no binding | 3.2 O.D. (405 nm) | 1.2 O.D. (405 nm) | binds | no binding | no binding | no binding | no binding | no binding | no binding | no binding | no binding | no binding | no binding | no binding | no binding | no binding | no binding | no binding | < 0.01 nM | binding result (TP-28): no binding; binding result (TP-27): no binding; binding result (TP-30): no binding; binding result (TP-26): no binding; binding result (TP-29): no binding; binding result (TP-31): no binding
3 | ACI-7062-414A5-Ab1 (antibody, IgG2a, V domains shown, also called 414A5D2; clone 12) VH: DVQLVESGGGLVQPGGSRRLSCAASGFTFSSFGMHWVRQAPEKGLEWVAYIRSGSDIIYYADTVKGRFTISRDNPENTLFLEMTRLRSEDTAMYYCARSGTTVPFDYWGQGTSLTVSS VL: not shown | no binding | 3.9 O.D. (405 nm) | 1.2 O.D. (405 nm) | binds | no binding | no binding | no binding | no binding | no binding | no binding | no binding | no binding | no binding | no binding | no binding | no binding | no binding | no binding | no binding | < 0.01 nM | binding result (TP-28): no binding; binding result (TP-27): no binding; binding result (TP-30): no binding; binding result (TP-26): no binding; binding result (TP-29): no binding; binding result (TP-31): no binding
